Results reported in patent US20140315811A1, “OPHTHALMIC PREPARATIONS BASED ON PACAP (PITUITARY ADENYLATE CYCLASE ACTIVATING POLYPEPTIDE) WHICH RESTORE THE NORMAL VISUAL FUNCTION IN EARLY GLAUCOMA” (HMFRA HUNGARY LIMITED LIABILITY COMPANY, priority 2011, published 2014).

Legend:
[1] = system: DBA/2J mouse (retinal ganglion cells / inner nuclear layer response); assay: Pattern electroretinogram (P-ERG) after repeated topical application in murine spontaneous glaucoma model; type: in vivo
From the text: The PACAP receptor, called PAC1, is known to be expressed in the ganglion cells (Seki et al. 1997; 2000; D'Agata and Cavallaro 1998; Hannibal and Fahrenkrug 2004; Kubrusly et al. 2005). The activity of PACAP was verified in the most common experimental model of spontaneous glaucoma, a double mutant mouse called DBA/2J (John et al., 1998; Chang et al., 1999). The DBA/2J mouse presents homozygous mutations of two separate genes; the first is […] (Tyrpl−/−) coding for a melanosome protein, and the second is a membrane glycoprotein (Gpnmb−/−); pigment granules accumulate in the trabecular meshwork, similar to the form of pigmentary glaucoma, with consequent trabecular degeneration, atrophy of the iris and progressive impairment of the outflow of aqueous humor, which leads to an increase in IOP.
This mouse is characterised by a progressive increase in IOP, with progressive loss of the retinal response to structured visual stimuli (which may be lattices formed by pale strips alternating with dark strips, or chess pieces, with different contrasts and sizes) which depends on the inner nuclear layer/ganglion cells; in humans and in the animal model, this retinal response is called the pattern electroretinogram (P-ERG; Domenici et al.,1991; Ventura and Porciatti, 2006; Falsini et al., 2008). The dysfunction of the ganglion cells is followed at a late stage by degeneration of the ganglion cells, with a reduction in their density and progressive atrophy of the optic nerve (Ventura et al., 2006; Buckingham et al., 2008). […] At the age of 11 months the IOP rises further; a progression of the disorder similar to that which takes place in human patients can therefore be deduced. […]

[2] = system: cAMP levels in the retina; assay: Determination of cAMP levels in the retina after topical application of PACAP 38 (Cyclic AMP EIA kit, retinal homogenate); type: in vivo, mice (C57BL-6J); conditions: topical application into conjunctival sac, PACAP 50 μM (0.226 μg/μl) in saline (0.9% NaCl) and acetic acid (5%); 6 hours after application; Student's t-test p<0.05
Experimental: • The preparation Based on Saline Solution (0.9% NaCl) Containing PACAP 38 was Used
The test was conducted on mice (C57BL-6J, Harlan, Italy); PACAP 38 was applied topically, instilled into the conjunctival sac of one eye, while the other eye, used as control, was treated with the saline solution (“placebo”) only. • Determination of cAMP Levels in the Retina
The animals were sacrificed 6 hours after the topical application, when deep anaesthesia had been induced by an intraperitoneal urethane injection (20%). The eye was then removed, and the cAMP level measured in the retinal homogenate of the eye treated with PACAP and of the other eye treated with saline only (control eye). The measurements were performed by cyclic AMP assay using the Cyclic AMP EIA KIT ([…]). The results shown in the chart in FIG. 1 were obtained with a topical application of PACAP (50 μM; 0.226 μg/μl) in saline solution (0.9% NaCl) and acetic acid (5%), and are expressed as relative values (%) compared with the control eye.

[3] = system: DBA/2J mouse (photoreceptors and outer nuclear layer response to light); assay: Flash ERG after repeated topical application in murine spontaneous glaucoma model; type: in vivo; conditions: PACAP 50 μM in saline, two weeks, one treatment every 48 h
From the text: The other type of electroretinogram, flash ERG, which measures the response of the photoreceptors and the outer nuclear layer to light, appears wholly intact in glaucoma, further supporting the theory that this is a type of disorder affecting the inner nuclear layer, namely the ganglion cells, at least at the early stage.

## Pituitary Adenylate Cyclase Activating Polypeptide [PACAP]
[1]; 500 nM (0.0022 μg/μl), 1 μM (0.0045 μg/μl), 50 μM (0.226 μg/μl), topical, every 48 hours for two weeks, 8-month-old mice
  Effectiveness on P-ERG across the three concentrations tested: only the highest concentration (50 μM, 0.226 μg/μl) proved effective
[1]; PACAP 50 μM (0.226 μg/μl) in saline, topical, one application every 48 hours for 2 weeks between 8 and 8.5 months of age, p<0.05
  Effect on alteration of P-ERG (treated eye vs control eye): prevented the alteration of P-ERG
[1]; repeated topical treatment, DBA/2J mouse, early stage glaucoma
  Minimal effective concentration able to exert protective effects on the ganglion cell function: 0.226 µg/µL
[2]
  cAMP level in retinal homogenate, treated eye compared with control eye: significantly higher
[3]
  Flash ERG of the treated eye (response of photoreceptors and outer nuclear layer to light): normal flash ERG
